# Experimental data: publication PMC2715281 (Nature structural & molecular biology, 2009)
# Read-outs that look alike come from different tables or passages of the source.
# T1: RAG1 NBD (mouse (murine), UniProt P15919 389-464)
# T1 sequence: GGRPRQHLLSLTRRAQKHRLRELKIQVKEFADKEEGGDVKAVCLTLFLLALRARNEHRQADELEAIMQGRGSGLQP
# T2: MBP-RAG1 core WT;GST-RAG2 core (mouse (murine);mouse (murine), UniProt P15919;P21784 384-1008;1-383, |)
# T2 sequence 1: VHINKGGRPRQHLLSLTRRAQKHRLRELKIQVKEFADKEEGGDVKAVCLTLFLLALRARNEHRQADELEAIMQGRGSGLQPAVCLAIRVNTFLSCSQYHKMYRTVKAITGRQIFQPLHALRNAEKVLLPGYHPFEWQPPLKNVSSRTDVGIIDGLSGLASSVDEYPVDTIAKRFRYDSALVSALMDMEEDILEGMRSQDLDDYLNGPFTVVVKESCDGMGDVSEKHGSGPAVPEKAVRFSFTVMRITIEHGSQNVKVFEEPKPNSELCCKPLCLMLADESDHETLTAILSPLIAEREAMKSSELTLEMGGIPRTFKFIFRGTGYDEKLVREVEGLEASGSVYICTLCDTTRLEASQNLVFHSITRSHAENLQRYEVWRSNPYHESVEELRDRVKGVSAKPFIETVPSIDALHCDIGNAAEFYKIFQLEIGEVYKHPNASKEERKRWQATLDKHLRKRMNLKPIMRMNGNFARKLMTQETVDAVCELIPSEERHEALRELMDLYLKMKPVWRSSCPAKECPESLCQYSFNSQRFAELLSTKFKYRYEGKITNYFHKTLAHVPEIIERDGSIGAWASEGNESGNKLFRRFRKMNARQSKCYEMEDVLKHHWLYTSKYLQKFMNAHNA
# T2 sequence 2: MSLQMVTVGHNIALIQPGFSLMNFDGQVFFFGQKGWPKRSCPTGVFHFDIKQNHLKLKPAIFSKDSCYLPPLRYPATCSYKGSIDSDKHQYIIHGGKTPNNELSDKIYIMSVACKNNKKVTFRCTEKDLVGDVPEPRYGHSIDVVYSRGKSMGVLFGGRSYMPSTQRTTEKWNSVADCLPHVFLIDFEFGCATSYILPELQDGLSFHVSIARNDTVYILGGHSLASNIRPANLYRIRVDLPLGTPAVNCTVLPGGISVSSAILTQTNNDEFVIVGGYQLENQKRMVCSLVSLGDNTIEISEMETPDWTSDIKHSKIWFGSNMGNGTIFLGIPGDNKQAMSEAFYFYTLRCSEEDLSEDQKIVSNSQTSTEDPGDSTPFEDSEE
# Columns and labels:
# [1] = target: T1, RAG1 NBD; assay: crystal structure
# [2] = target: T1, RAG1 NBD; assay: crystal structure; remark: listed apart in the source
# [3] = target: the molecule itself; assay: SEC + SEC-MALS
# [4] = target: T2, MBP-RAG1 core WT;GST-RAG2 core; assay: EMSA
# [5] = target: MBP-RAG1 core WT;GST-RAG2 core;His-HMGB1 (mouse (murine);mouse (murine);human, UniProt P15919;P21784;P09429 384-1008;1-383;1-215, ||); assay: EMSA
# Chain of MBP-RAG1 core WT;GST-RAG2 core;His-HMGB1 (P09429 whole entry, one chain of several): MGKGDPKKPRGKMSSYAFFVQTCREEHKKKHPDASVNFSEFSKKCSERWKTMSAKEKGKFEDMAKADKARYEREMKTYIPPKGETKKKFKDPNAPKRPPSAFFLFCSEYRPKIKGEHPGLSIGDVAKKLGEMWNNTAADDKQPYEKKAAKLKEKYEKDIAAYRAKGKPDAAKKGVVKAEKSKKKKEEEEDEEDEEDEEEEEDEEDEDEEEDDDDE
binder,measurement,setting,value
56DNA crystal 14-mer (symmetrized) (dsDNA) DNA 1: AGTTTTCAGAAACC DNA 2: AGGTTTCTGAAAAC,binding result,[1],binds
Native crystal 14-mer (nonamer plus 4 bp of 12RSS spacer) (dsDNA) DNA 1: ACTTAACAAAAACC DNA 2: TGGTTTTTGTTAAG,binding result,[2],binds
"His6-tagged RAG1 nonamer-binding domain (murine RAG1 residues 389-464) (domain or fragment, UniProt P15919 389-464, looked up) GGRPRQHLLSLTRRAQKHRLRELKIQVKEFADKEEGGDVKAVCLTLFLLALRARNEHRQADELEAIMQGRGSGLQP",stoichiometry N,[3],2
Consensus 12RSS (dsDNA) DNA 1: GATCTGGCCTGTCTTACACAGTGATACAGACCTTAACAAAAACCTGCACTCGAGCGGAG DNA 2: CTCCGCTCGAGTGCAGGTTTTTGTTAAGGTCTGTATCACTGTGTAAGACAGGCCAGATC,binding signal,[4],1 relative to WT
same,binding result,[5],binds
